Results on one substance are retold here after paper PMC10197516.

The target in this experiment is SARS-CoV-2 spike-protein trimers. Description: SEC + other: negative-stain electron microscopy.

What is called stoichiometry N is a count of units in the complex or per binding partner. For SARS-CoV-2 spike-protein trimers, the stoichiometry N worked out at 3.
